Source: publication doi:10.1101/2020.02.11.944462

Columns and labels:
[1] = molecular target: 2019-nCoV S prefusion-stabilized ectodomain (residues 1-1208, two proline substitutions, GSAS at the (2019-nCoV | bacteriophage T4)); test: SPR; […], Biacore X100; 10 mM HEPES pH 8.0, 150 mM NaCl, 0.05% Tween 20; […]; 1:1 binding model
[2] = molecular target: 2019-nCoV S prefusion-stabilized ectodomain (residues 1-1208, two proline substitutions, GSAS at the (2019-nCoV | bacteriophage T4)); test: cryo-EM structure

human angiotensin-converting enzyme 2 (ACE2), residues 1-615, untagged, sequence (Q9BYF1 18-615): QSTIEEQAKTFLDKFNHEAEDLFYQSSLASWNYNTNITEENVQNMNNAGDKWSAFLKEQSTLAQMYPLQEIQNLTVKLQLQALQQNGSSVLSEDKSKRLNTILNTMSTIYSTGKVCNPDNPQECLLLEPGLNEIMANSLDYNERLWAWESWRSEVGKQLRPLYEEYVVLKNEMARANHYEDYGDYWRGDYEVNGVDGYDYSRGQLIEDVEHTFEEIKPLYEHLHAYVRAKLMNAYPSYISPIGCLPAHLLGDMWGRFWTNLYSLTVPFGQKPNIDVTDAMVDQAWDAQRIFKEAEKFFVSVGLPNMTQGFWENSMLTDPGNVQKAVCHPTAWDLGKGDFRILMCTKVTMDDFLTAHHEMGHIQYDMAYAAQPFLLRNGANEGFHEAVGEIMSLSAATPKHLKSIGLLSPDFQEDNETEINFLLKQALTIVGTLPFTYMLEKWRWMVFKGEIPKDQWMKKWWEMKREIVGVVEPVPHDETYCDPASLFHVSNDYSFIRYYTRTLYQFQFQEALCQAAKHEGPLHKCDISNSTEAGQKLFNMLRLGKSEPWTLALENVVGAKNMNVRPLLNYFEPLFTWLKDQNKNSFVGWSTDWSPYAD

Row | Substance | Kd [1] [nM] | stoichiometry N [2]
1 | human angiotensin-converting enzyme 2 (ACE2), residues 1-615, untagged (from UniProt Q9BYF1 18-615) (receptor) | 15 | –
2 | 2019-nCoV S prefusion-stabilized ectodomain (residues 1-1208, two proline substitutions, GSAS at the (domain or fragment) | – | 3
